# Assay results from patent publication US20160002326A1 (AbbVie / Abbott, published 2016).
# Changes are numbered by the printed parent chain. Names and notes keep the numbering of the source.
# B1: ABBV-257 anti-human TNF and IL-17 DVD-Ig binding protein (bispecific antibody, human IgG1, kappa, L234A L235A)
# heavy: EVQLVQSGAEVKKPGASVKVSCKASGYTFANYGIIWVRQAPGQGLEWMGWINTYTGKPTYAQKFQGRVTMTTDTSTSTAYMELSSLRSEDTAVYYCARKLFTTMDVTDNAMDYWGQGTTVTVSSGGGGSGGGGSEVQLVQSGAEVKKPGSSVKVSCKASGYTFTDYEIHWVRQAPGQGLEWMGVNDPESGGTFYNQKFDGRVTLTADESTSTAYMELSSLRSEDTAVYYCTRYSKWDSFDGMDYWGQGTTVTVSSASTKGPSVFPLAPSSKSTSGGTAALGCLVKDYFPEPVTVSWNSGALTSGVHTFPAVLQSSGLYSLSSVVTVPSSSLGTQTYICNVNHKPSNTKVDKKVEPKSCDKTHTCPPCPAPEAAGGPSVFLFPPKPKDQLMISRTPEVTCVVVDVSHEDPEVKFNWYVDGVEVHNAKTKPREEQYNSTYRVVSVLTVLHQDWLNGKEYKCKVSNKALPAPIEKTISKAKGQPREPQVYTLPPSREEMTKNQVSLTCLVKGFYPSDIAVEWESNGQPENNYKTTPPVLDSDGSFFLYSKLTVDKSRWQQGNVFSCSVLHEALHNHYTQKSLSLSPGK
# light: DIQMTQSPSSLSASVGDRVTITCRASQDISQYLNWYQQKPGKAPKLLIYYTSRLQSGVPSRFSGSGSGTDFTLTISSLQPEDFATYFCQQGNTWPPTFGQGTKLEIKRGGSGGGGSGDIQMTQSPSSLSASVGDRVTITCRASSGIISYIDWFQQKPGKAPKRLIYATFDLASGVPSRFSGSGSGTDYTLTISSLQPEDFATYYCRQVGSYPETFGQGTKLEIKRTVAAPSVFIFPPSDEQLKSGTASVVCLLNNFYPREAKVQWKVDNALQSGNSQESVTEQDSKDSTYSLSSTLTLSKADYEKHKVYACEVTHQGLSSPVTKSFNRGEC
# modifications: N-linked glycans on the heavy chain at the asparagine commonly modified on IgG1 antibodies (fucosylated biantennary oligosaccharides with 0, 1 or 2 galactose residues)
# notes: It says the constant region carries L234A, L235A and also T250Q and M428L; also called Anti-IL-17/TNF DVD-Ig Protein
# Assays:
# Fcγ RIIa, variant 131R = molecular target: T1, Fcγ RIIa, variant 131R (UniProt P12318 36-218, limits assumed); assay: Biacore
# T1 construct: also called FcγRIIa 131R
# T1 sequence (looked up): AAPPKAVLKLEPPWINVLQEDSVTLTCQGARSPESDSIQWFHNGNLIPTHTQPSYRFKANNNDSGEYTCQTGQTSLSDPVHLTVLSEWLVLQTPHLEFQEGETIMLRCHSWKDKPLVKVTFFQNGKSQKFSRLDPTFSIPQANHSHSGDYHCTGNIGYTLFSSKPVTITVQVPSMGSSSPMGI
# Fcγ RIIIa, variant 158F = molecular target: T2, Fcγ RIIIa, variant 158F (UniProt P08637 17-208); assay: Biacore
# T2 construct: also called FcγRIIIa 158F
# T2 sequence (P08637 17-208 limits assumed, change not shown): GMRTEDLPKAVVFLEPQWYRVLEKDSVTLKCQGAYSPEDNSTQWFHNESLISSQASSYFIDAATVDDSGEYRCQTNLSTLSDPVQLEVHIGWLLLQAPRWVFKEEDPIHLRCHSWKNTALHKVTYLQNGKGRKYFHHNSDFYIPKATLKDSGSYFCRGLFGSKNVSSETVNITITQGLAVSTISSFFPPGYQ
# Fcγ RIIb = molecular target: T3, Fcγ RIIb (UniProt P31994 46-217, limits assumed); assay: Biacore
# T3 sequence (looked up): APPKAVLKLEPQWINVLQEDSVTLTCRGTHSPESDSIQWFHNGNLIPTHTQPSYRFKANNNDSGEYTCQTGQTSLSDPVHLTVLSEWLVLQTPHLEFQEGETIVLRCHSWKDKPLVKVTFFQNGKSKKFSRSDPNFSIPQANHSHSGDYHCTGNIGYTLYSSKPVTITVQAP
# Fcγ RI = molecular target: T4, Fcγ RI (UniProt P12314 16-288, limits assumed); assay: Biacore
# T4 construct: also called FcγR1
# T4 sequence (P12314 16-288 limits assumed): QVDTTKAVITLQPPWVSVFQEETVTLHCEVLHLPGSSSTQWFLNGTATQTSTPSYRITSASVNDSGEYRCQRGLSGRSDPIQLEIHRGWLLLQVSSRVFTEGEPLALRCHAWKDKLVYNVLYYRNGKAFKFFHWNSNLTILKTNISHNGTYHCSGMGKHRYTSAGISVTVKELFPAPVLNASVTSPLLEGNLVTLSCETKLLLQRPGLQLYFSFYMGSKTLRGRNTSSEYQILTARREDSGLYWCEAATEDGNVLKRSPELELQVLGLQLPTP
# Fcγ RIIa, variant 131H = molecular target: T5, Fcγ RIIa, variant 131H (UniProt P12318 36-218, limits assumed); assay: Biacore
# T5 construct: also called FcγRIIa 131H
# T5 sequence (looked up): T1 sequence (looked up) with R132H
# human IL-17A/A homodimer [1] = molecular target: T6, human IL-17A/A homodimer (human, UniProt Q16552 24-155); assay: cell-based or functional assay
# T6 sequence: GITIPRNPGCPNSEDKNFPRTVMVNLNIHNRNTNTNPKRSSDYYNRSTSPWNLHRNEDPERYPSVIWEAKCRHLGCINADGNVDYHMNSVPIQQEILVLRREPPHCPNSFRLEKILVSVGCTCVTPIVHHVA
# human TNF-α [2] = molecular target: T7, human TNF-α (human, UniProt P01375 77-233); assay: cell-based or functional assay
# T7 sequence (P01375 77-233 limits assumed): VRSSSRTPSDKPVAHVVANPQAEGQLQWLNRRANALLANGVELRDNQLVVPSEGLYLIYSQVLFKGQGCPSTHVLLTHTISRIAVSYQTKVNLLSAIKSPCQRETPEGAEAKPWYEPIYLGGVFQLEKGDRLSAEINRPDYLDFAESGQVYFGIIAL
# [3] = molecular target: T8, human IL-17A/F heterodimer (human, UniProt Q16552 24-155; Q96PD4 31-163); assay: cell-based or functional assay
# T8 sequence 1: T6 sequence
# T8 sequence 2: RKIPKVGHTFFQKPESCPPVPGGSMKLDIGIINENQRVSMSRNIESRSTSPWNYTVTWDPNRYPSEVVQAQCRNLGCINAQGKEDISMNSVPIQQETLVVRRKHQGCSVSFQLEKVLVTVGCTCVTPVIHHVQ
# [4] = molecular target: T9, monkey (Rhesus/Cynomolgus) IL-17 (monkey (Rhesus/Cynomolgus), UniProt F6T3G5 24-155); assay: cell-based or functional assay
# T9 sequence: T6 sequence with T3A, N17T, I77V, P104R
# rat TNF = molecular target: T10, rat TNF (rat, UniProt P16599 80-235); assay: cell-based or functional assay
# T10 sequence (looked up): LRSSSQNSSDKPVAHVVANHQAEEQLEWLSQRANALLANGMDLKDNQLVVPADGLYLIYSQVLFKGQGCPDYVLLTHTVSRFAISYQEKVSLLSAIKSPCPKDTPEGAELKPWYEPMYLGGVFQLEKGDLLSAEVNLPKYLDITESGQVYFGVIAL
# human IL-17A/A homodimer [5] = molecular target: T6, human IL-17A/A homodimer; assay: cell-based or functional assay; remark: listed apart in the source
# [6] = molecular target: monkey (Rhesus/Cynomolgus) TNF (monkey (Rhesus/Cynomolgus), UniProt P48094 77-233); assay: cell-based or functional assay
# Chain of monkey (Rhesus/Cynomolgus) TNF (P48094 77-233 limits assumed): as the sequence (P01375 77-233 limits assumed) above, with R44T, T72N, R138L counted along it
# rat IL-17 = molecular target: T11, rat IL-17 (rat, UniProt Q61453 18-150, limits assumed); assay: cell-based or functional assay
# T11 sequence (looked up): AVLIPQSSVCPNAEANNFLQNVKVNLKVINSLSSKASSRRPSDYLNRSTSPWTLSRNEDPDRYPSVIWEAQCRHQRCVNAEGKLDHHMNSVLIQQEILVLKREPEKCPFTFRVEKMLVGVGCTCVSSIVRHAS
# rabbit TNF = molecular target: T12, rabbit TNF (rabbit, UniProt P04924 80-235, limits assumed); assay: cell-based or functional assay
# T12 sequence (looked up): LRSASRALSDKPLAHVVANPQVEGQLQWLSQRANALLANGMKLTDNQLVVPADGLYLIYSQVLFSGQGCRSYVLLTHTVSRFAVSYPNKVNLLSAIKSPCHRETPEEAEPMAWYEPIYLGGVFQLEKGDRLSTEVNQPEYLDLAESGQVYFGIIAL
# mouse IL-17 = molecular target: T13, mouse IL-17 (mouse, UniProt Q62386 26-158, limits assumed); assay: cell-based or functional assay
# T13 sequence (looked up): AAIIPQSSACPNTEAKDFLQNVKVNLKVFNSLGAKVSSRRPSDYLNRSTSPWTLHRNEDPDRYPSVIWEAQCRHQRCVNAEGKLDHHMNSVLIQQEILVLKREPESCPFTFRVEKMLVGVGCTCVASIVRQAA
# mouse TNF = molecular target: T14, mouse TNF (mouse, UniProt P06804 80-235); assay: cell-based or functional assay
# T14 sequence (looked up): T10 sequence (looked up) with A22V, I58V, S91N, I96V, M117I, L130Q, I143F, T144A
# human TNF-α [7] = molecular target: T7, human TNF-α; assay: assay not stated; rounded figure in the dose-selection text, assay not stated
binder,measurement,setting,value
B1,binding result,"Fcγ RIIa, variant 131R",no binding
same,binding result,"Fcγ RIIIa, variant 158F",no binding
same,binding result,Fcγ RIIb,no binding
same,binding result,Fcγ RI,no binding
same,binding result,"Fcγ RIIa, variant 131H",no binding
same,"Mean IC50, inhibition of IL-17 dependent induction of IL-6 in fibroblasts",human IL-17A/A homodimer [1],0.026 nM
same,"Mean IC50, inhibition of TNF-induced lethality of L929 cells",human TNF-α [2],0.025 nM
same,"Mean IC50, inhibition of IL-17 dependent induction of IL-6 in fibroblasts",[3],0.11 nM
same,"IC50, in vitro neutralization assay (In-Vitro Potency)",[4],0.032 nM
same,"IC50, in vitro neutralization assay (In-Vitro Potency)",rat TNF,> 1000 nM
same,"IC50, in vitro neutralization assay (In-Vitro Potency)",human IL-17A/A homodimer [5],0.026 nM
same,"IC50, in vitro neutralization assay (In-Vitro Potency)",[6],0.025 nM
same,"IC50, in vitro neutralization assay (In-Vitro Potency)",rat IL-17,0.135 nM
same,"IC50, in vitro neutralization assay (In-Vitro Potency)",rabbit TNF,> 1000 nM
same,"IC50, in vitro neutralization assay (In-Vitro Potency)",mouse IL-17,0.239 nM
same,"IC50, in vitro neutralization assay (In-Vitro Potency)",mouse TNF,> 1000 nM
same,Kd,human TNF-α [7],0.005 nM
